Experimental data as given in publication doi:10.1101/296517.

Tests used:
[1] = molecular target: giantin (rat hepatocytes) (rat (endogenous in primary hepatocytes)); experiment: Western blot of lysates
[2] = molecular target: giantin (human (endogenous in HeLa, LNCaP, PC-3, liver tissue)) (UniProt Q14789); experiment: Western blot of lysates; details: remark: other sources report otherwise

Row | stoichiometry N [1] | stoichiometry N [2] | Substance
1 | 2 |  | giantin (rat hepatocytes) (natural protein)
2 |  | 2 | giantin, Q14789 1-3259
